Measured values taken from patent publication US20240409645A1 (published 2024).

T1: human IL-2 receptor IL-2Rα/IL-2Rβ/γc on HEK-Blue IL-2 cells (UniProt P01589 22-272; P14784 27-551; P31785 23-369)
T1 chain 1: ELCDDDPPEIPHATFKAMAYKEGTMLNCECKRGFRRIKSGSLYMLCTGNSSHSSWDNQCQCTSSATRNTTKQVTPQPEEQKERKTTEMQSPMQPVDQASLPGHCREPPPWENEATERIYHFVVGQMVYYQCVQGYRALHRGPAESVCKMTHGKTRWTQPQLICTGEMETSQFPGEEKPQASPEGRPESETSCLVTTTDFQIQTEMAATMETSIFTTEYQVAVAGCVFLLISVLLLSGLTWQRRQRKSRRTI
T1 chain 2: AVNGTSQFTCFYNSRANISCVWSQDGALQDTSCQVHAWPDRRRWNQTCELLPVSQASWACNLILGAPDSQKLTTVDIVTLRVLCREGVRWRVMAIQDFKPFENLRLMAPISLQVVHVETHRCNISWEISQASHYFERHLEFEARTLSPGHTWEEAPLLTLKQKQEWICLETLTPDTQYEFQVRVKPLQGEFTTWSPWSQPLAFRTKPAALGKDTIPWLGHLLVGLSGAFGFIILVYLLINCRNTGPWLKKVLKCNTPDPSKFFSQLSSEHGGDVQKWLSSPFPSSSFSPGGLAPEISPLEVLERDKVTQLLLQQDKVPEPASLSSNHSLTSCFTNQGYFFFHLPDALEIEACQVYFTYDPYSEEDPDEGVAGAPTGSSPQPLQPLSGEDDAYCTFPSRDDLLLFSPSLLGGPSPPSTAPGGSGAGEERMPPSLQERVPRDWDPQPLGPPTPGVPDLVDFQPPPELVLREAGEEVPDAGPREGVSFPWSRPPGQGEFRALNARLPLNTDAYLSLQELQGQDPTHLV
T1 chain 3: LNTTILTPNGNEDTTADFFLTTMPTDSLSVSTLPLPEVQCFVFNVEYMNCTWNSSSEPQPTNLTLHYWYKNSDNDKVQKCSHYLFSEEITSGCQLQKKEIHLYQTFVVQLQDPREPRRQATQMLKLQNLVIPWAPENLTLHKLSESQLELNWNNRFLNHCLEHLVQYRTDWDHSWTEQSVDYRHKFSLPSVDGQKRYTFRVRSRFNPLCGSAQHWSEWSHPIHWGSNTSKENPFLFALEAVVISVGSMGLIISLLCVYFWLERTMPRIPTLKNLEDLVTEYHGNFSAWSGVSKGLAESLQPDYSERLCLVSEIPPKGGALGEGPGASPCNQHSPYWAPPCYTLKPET

B1: BsVHH-15 (36x19) (antibody)
chain: QVQLVESGGGLVQAGGSLRLSCAASGRTLSRYAMGWFRQAPGSEREFVAASSWGGDTFYADSVEGRFTFSRDNAKNAVYLQMNSLQPEDTAAYYCAAAPTSFPTTAYSSSNSYAYWGQGTQVTVSSGGGGSGGGGSGGGGSGSEVQLVESGGGLVQTGGSLRLSCAASGGTFSRDAMAWFRQVPGKEREFVALISWSGATTNYADSVKGRFAISRDNGKNTVYLQMNRLKPADTAIYYCAADRRPMGSRSYFEPTEYDDWGQGTQVTVSSGGGGSGGGGSGGGGSTVSSDKTHTCPPCPAPEAAGGPSVFLFPPKPKDTLMISRTPEVTCVVVDVSHEDPEVKFNWYVDGVEVHNAKTKPREEQYNSTYRVVSVLTVLHQDWLNGKEYKCKVSNKALGAPIEKTISKAKGQPREPQVYTLPPSRDELTKNQVSLTCLVKGFYPSDIAVEWESNGQPENNYKTTPPVLDSDGSFLLYSKLTVDKSRWQQGNVFSCSVMHEALHNHYTQKSLSLSPGK
B2: BsVHH-8 (32x18) (antibody)
chain: QVQLVESGGGLVQAGGSLRLSCAASGRTFGSTAVGWFRQVPGKEREFVSAINRSGSATTYADSVKGRFTISRDNAKNTVYLQMNSLTPEDTGVYYCAADSLPYGRPYYFQRSAGEYDYWGQGTQVTVSSGGGGSGGGGSGGGGSGSQVQLVESGGGLVQPGGSLRLSCAISGGTLDSYGIGWVRQAPGKQREGVSCMSRSDDRTYYADSVKGRFTISKDSAKNTVYLQMTSLKPEDTAVYYCAAVDAYGCSLVQPTTYDFWGLGTQVTVSSGGGGSGGGGSGGGGSTVSSDKTHTCPPCPAPEAAGGPSVFLFPPKPKDTLMISRTPEVTCVVVDVSHEDPEVKFNWYVDGVEVHNAKTKPREEQYNSTYRVVSVLTVLHQDWLNGKEYKCKVSNKALGAPIEKTISKAKGQPREPQVYTLPPSRDELTKNQVSLTCLVKGFYPSDIAVEWESNGQPENNYKTTPPVLDSDGSFLLYSKLTVDKSRWQQGNVFSCSVMHEALHNHYTQKSLSLSPGK
B3: BsVHH-7 (31x18) (antibody)
chain: QVQLVESGGGLVQAGGSLRLSCTGYGGAFTGYALGWFRQAPGKEREFVARINWSGSFTYYASSVKGRFTISRDNAKNTMYLQMNNLKPEDTAVYYCAADNPSTLATDYDNWGQGTQVTVSSGGGGSGGGGSGGGGSGSQVQLVESGGGLVQPGGSLRLSCAISGGTLDSYGIGWVRQAPGKQREGVSCMSRSDDRTYYADSVKGRFTISKDSAKNTVYLQMTSLKPEDTAVYYCAAVDAYGCSLVQPTTYDFWGLGTQVTVSSGGGGSGGGGSGGGGSTVSSDKTHTCPPCPAPEAAGGPSVFLFPPKPKDTLMISRTPEVTCVVVDVSHEDPEVKFNWYVDGVEVHNAKTKPREEQYNSTYRVVSVLTVLHQDWLNGKEYKCKVSNKALGAPIEKTISKAKGQPREPQVYTLPPSRDELTKNQVSLTCLVKGFYPSDIAVEWESNGQPENNYKTTPPVLDSDGSFLLYSKLTVDKSRWQQGNVFSCSVMHEALHNHYTQKSLSLSPGK
B4: BsVHH-9 (35x18) (antibody)
chain: QVQLQESGGGLVQGGGSLRLSCAASGGIFSSYAMGWFRQAPGKEREFVAAISRSGRSTNYADSVKGRFTISRDNAKSTVYLQMNSLKPEETAVYYCAAGRYYNSAYDPSPGDFGSWGHGTQVTVSSGGGGSGGGGSGGGGSGSQVQLVESGGGLVQPGGSLRLSCAISGGTLDSYGIGWVRQAPGKQREGVSCMSRSDDRTYYADSVKGRFTISKDSAKNTVYLQMTSLKPEDTAVYYCAAVDAYGCSLVQPTTYDFWGLGTQVTVSSGGGGSGGGGSGGGGSTVSSDKTHTCPPCPAPEAAGGPSVFLFPPKPKDTLMISRTPEVTCVVVDVSHEDPEVKFNWYVDGVEVHNAKTKPREEQYNSTYRVVSVLTVLHQDWLNGKEYKCKVSNKALGAPIEKTISKAKGQPREPQVYTLPPSRDELTKNQVSLTCLVKGFYPSDIAVEWESNGQPENNYKTTPPVLDSDGSFLLYSKLTVDKSRWQQGNVFSCSVMHEALHNHYTQKSLSLSPGK
B5: 9-MP05G01 VHH-hFc, monospecific monovalent (Fc fusion)
VHH: EVQLVESGGGLVQAGGSLRLSCAASGGSIYTYNMGWFRQAPGKEREFVAGTLWSGGDSVYADFAKGRFTLSRENAKNTLYLQMNSLKPEDTATYYCAIDPLSLTSDWRVDELSSWGKGTLVTVSS
B6: 5-MP01F05 VHH-hFc, monospecific monovalent (Fc fusion)
VHH: EVQLVESGGGLVQAGGSLRLSCAASIRAFTTWSMAWFRQAPGKEREYVARINVSGSVTYYADFVKGRFTISRDNAKKTMYLEMNNLKPEDTALYYCAADRTGVGTNDYNYWGQGTQVTVSS
B7: 1-MP01H01 VHH-hFc, monospecific monovalent (Fc fusion)
VHH: EVQLVESGGGLVQAGGSLRLSCAASGRTFRTHNMGWFRRAPGKEREFVAAISWNVDNTLYADSVKGRFTISRDNGRNMVYLQMNSLKPEDTAVYYCAADNIPLSSDVAATATEYDYWGQGTQVTVSS
B8: 6-MP01G05 VHH-hFc, monospecific monovalent (Fc fusion)
VHH: QVQLQESGGGLVQAGGSLRLSCAASGRTFSSYAMGWFRQAPGKEREFVAVISWNVDNTEYTDSVKGRFTISRDNDKNMVYLQMNSLKPEDTAVYYCAADSIPLSSDMSPTATEYGYWGQGTQVTVSS
B9: 4-MP01F04 VHH-hFc, monospecific monovalent (Fc fusion)
VHH: QVQLVESGGGLVQAGGSLRLSCAASGGTFRTRNMGWFRRAPGKEREFVAAVSWNVDNKLYADSVKGRFTISRDNGRNMVYLQMNSLKPEDTAVYYCAADNIPLSSDMRPTATEYDYWGQGTQVTVSS
B10: 7-MP01G08 VHH-hFc, monospecific monovalent (Fc fusion)
VHH: EVQLVESGGGLVQAGGSLRLSCAASGRAFSMYNMGWFRQAPGKEREFVAATGWSGANTPYADSVKGRFTISRDNTQNTVYLQMNSLKPEDTATYYCAADSIRLRSDVTRIPLEYDYWGQGTQVTVSS
B11: 11-MP05H04 VHH-hFc, monospecific monovalent (Fc fusion)
VHH: QLQLVESGGGLVQAGGSLRLSCAASGLTFEGYAIGWFRQAPGKEREGVSYITGSDGTTYYINSVKGRFTISSDNAKSTVYLQMNTLKPEDTAVYYCAVDRLGSQGRYASAWWRSGDMDLWGKGTQVTVSS
B12: 10-MP05F03 VHH-hFc, monospecific monovalent (Fc fusion)
VHH: QVQLVESGGGLVQAGGSLRLSCAASGIPFDNYAMGWFRQAPGKEREFVAARDLEGIITRYGDSVKGRFTISRGNAKNTVFLQMNSLKPEDTAVYYCAARDGGVVAGSRSSAQYNYWGQGTQVTVSS
B13: 8-MP01C12 VHH-hFc, monospecific monovalent (Fc fusion)
VHH: QVQLVESGGGLVQPGGSLRLSCATSGFTFSNNFMSWVRQAPGKGLEFVSTISYGGESTTYAEAVKGRFTISRDNAKNTLYLQMNNLKPEDTAIYYCAKATSYTSIRGAPRGQGTQVTVSS
B14: 13-MP05E12 (antibody, V domains shown)
VH: QVQLQESGGGLVQAGDSLRLSCAASGFNFGWHAMGWFRQAPGKEREFVATITWTGRDTYYADSVRGRFTISKDNAKDTLFLQMNSLRPDDTGVYYCAKARERATWAYSEDDCDYWGQGTQVTVSS
B15: 3-MP01E03 VHH-hFc, monospecific monovalent (Fc fusion)
VHH: QVQLVESGGGLVQAGGSLRLSCTASGRTLSSYSMAWFRQAADKGREFVTAISSSGVVTHVLDSVKGRFTISRDNAKNTVYLQMNSLQPEDTALYFCAGTASSYSTYEANYNYWGQGTLVTVSS
B16: 12-MP05B12 VHH-hFc, monospecific monovalent (Fc fusion)
VHH: QVQLVESGGGLVQAGGSLRLSCAASGFTFDGYAIGWFRQAPGKEREGVSYITGSDGSTYYADSVKGRFTISSNNAKNTVYLHMNSLKPDDAAVYYCAIDRLGSRGAYVPIWWRSSDMDLWGKGTLVTVSS

Biological target: T1, human IL-2 receptor IL-2Rα/IL-2Rβ/γc on …
Assay: FACS cell binding; avid

Point of comparison: B1, EC50 88.3 nM. Against it:
- B2 — 46-fold lower, 1.9 nM
- B3 — 3.8-fold lower, 23.5 nM
- B4 — 68-fold lower, 1.3 nM

Biological target: T1, human IL-2 receptor IL-2Rα/IL-2Rβ/γc on …
Assay: FACS cell binding; monovalent

Point of comparison: B5, EC50 2.3 nM. Against it:
- B6 — 4-fold higher, 9.2 nM
- B7 — 59-fold higher, 135 nM
- B8 — 2.4-fold higher, 5.6 nM
- B9 — within 1.5-fold, 2.2 nM
- B10 — 2-fold higher, 4.7 nM
- B11 — 2.6-fold higher, 5.9 nM
- B12 — within 1.5-fold, 2 nM
- B13 — within 1.5-fold, 2.7 nM
- B14 — within 1.5-fold, 3.2 nM
- B15 — within 1.5-fold, 3.3 nM
- B16 — 3.7-fold higher, 8.5 nM
